Measured values published in paper doi:10.1101/2023.12.18.571367.
“And” between values parts separate entries of the source, which are not always exact repeats. Identical values can stand only once.

Molecular target: NRC4 (NLR required for cell death 4) with the mutations L9E and D478V
Test: cryo-EM structure

NRC4 (NLR required for cell death 4) with the mutations L9E and D478V (natural protein)
stoichiometry N: 6 and 12
